Experimental data reported in PMC3248148, “Hsp90 can Accommodate the Simultaneous Binding of the FKBP52 and HOP Proteins” (Oncotarget, 2011).

Legend:
[1] = target: the molecule itself; assay: SEC; HiPrep Sephacryl S-200; each protein alone; 50mM Hepes, 150mM NaCl, 50mM KCl, 10mM MgCl2, 1mM DTT, pH 7.5; molecular weight interpolated from standards
[2] = target: T1, human Hsp90α (human, UniProt P07900 1-732); assay: native gel or EMSA; 7.5% Native-PAGE, no detergents, reducing or denaturing agents in the gel buffers; mixtures incubated at 30°C for 60 minutes; with and without 5mM ATP, 20mM Na2MoO4; with and without 0.01% dodecyl-maltopyranoside; conditions: both partners purified
T1 construct: Hsp90α, human, expressed from pET28b-Hsp90α; Dimer by Sephacryl S-200 SEC; also called Hsp90 dimer; source: E. coli BL21 (DE3), purified (Ni2+ HisTrap, Q-Sepharose, Sephacryl S-200)

[3] = target: T1, human Hsp90α; assay: co-IP; Hsp90α bait held on monoclonal Hsp90 (H90-10) antibody/Protein A-Sepharose beads; p23, FKBP52 and HOP added in the 2:1:2:2 molar ratios; 30°C, 60 minutes; without ATP, with 5mM ATP, 20mM Na2MoO4, and with ATP plus 0.01% dodecyl-maltopyranoside; SDS-PAGE; conditions: both partners purified

B1: human FKBP52 (52 kDa immunophilin FK506-binding protein) (natural protein, UniProt Q02790 1-459, looked up)
chain: MTAEEMKATESGAQSAPLPMEGVDISPKQDEGVLKVIKREGTGTEMPMIGDRVFVHYTGWLLDGTKFDSSLDRKDKFSFDLGKGEVIKAWDIAIATMKVGEVCHITCKPEYAYGSAGSPPKIPPNATLVFEVELFEFKGEDLTEEEDGGIIRRIQTRGEGYAKPNEGAIVEVALEGYYKDKLFDQRELRFEIGEGENLDLPYGLERAIQRMEKGEHSIVYLKPSYAFGSVGKEKFQIPPNAELKYELHLKSFEKAKESWEMNSEEKLEQSTIVKERGTVYFKEGKYKQALLQYKKIVSWLEYESSFSNEEAQKAQALRLASHLNLAMCHLKLQAFSAAIESCNKALELDSNNEKGLFRRGEAHLAVNDFELARADFQKVLQLYPNNKAAKTQLAVCQQRIRRQLAREKKLYANMFERLAEEENKAKAEASSGDHPTDTEMKEEQKSNTAGSQSQVETEA
notes: FKBP52, human, expressed from pET28b-FKBP52; Dimer in solution by SEC and DLS; The gene is printed as Fkbp4, of the mouse; source: E. coli BL21 (DE3), purified (Ni2+ HisTrap, Q-Sepharose, Sephacryl S-200)
stoichiometry N [1]: 2
stoichiometry N [2]: 0.5 FKBP52 per Hsp90 chain (1:2)

B2: human p23 co-chaperone (natural protein, UniProt Q15185 1-160, looked up)
chain: MQPASAKWYDRRDYVFIEFCVEDSKDVNVNFEKSKLTFSCLGGSDNFKHLNEIDLFHCIDPNDSKHKRTDRSILCCLRKGESGQSWPRLTKERAKLNWLSVDFNNWKDWEDDSDEDMSNFDRFSEMMNNMGGDEDVDLPEVDGADDDSQDSDDEKMPDLE
notes: p23 co-chaperone, human, untagged, expressed from pET23-p23; Eluted from Sephacryl S-200 as dimer and monomer; monomer by DLS; source: E. coli BL21 (DE3), purified (DEAE FF, Q-Sepharose, Sephacryl S-200)
binding result [3]: binds
